Assay [1] has as its target full-length human CD22 fused with flag and Myc tags at the C-terminus, on HEK293 or K562 cells (human) (UniProt P20273). Kind of assay: ELISA, IgG format; antigen format not described.
The target is the same in assay [2]. The assay is described as follows: cell-based or functional assay.
Assay [3] has the same target. Kind of assay: FACS on CD22-expressing cells (HEK293-CD22 by the table's head), anti-hFc Alexa 488.

full-length human CD22 fused with flag and Myc tags at the C-terminus, on HEK293 or K562 cells (human), sequence (P20273 20-847): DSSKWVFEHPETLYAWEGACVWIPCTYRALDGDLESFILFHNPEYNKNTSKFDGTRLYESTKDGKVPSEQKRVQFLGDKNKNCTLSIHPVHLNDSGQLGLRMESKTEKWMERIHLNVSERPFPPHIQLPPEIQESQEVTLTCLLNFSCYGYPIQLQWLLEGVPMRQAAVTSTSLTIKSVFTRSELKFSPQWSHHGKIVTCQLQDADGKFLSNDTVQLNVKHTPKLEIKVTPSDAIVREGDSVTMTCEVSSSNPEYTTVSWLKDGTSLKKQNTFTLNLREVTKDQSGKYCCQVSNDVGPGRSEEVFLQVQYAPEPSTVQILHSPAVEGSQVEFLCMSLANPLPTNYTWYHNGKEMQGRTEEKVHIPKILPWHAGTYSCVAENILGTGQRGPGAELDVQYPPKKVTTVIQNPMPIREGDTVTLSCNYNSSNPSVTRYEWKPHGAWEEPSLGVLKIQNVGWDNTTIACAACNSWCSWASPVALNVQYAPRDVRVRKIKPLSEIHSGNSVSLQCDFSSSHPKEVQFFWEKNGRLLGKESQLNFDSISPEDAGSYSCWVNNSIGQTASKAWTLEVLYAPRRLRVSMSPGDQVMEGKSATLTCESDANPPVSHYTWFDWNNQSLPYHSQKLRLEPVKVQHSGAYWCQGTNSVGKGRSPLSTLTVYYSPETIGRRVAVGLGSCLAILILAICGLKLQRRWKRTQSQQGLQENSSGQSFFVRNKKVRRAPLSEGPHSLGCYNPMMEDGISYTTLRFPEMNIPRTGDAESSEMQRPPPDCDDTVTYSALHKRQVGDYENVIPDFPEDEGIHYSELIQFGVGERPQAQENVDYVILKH

Usually EC50 stands for the midpoint of the concentration-response curve. Take BL22 (anti-CD22) (antibody): the concentration giving a half-maximal response (EC50) in assay [1] came to 0.004 nM; in assay [3], 0.044 nM. This substance came in with an EC50 in ADCC assay (Promega ADCC Bioreporter, CD22/HEK293 target cells) in assay [2] of 3.31 nM. In addition, the T½ (Hour) of internalization, CD22/HEK293 cells, pHrodo secondary in assay [2] is 3.95 Hour.

(Values after patent publication US20220298257A1.)
